According to the supplement of paper PMC9732359:
± gives the uncertainty stated by the source.

Test: protein stability index of a GFP-peptide fusion (yeast GPS) (PSI 1-4); higher = more stable; sorted into four equal gates, so the index is relative within each strain
Outline: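 Mid-log yeast cultures in leucine-free medium, carrying a pooled plasmid library, were sorted into four equal gates by their GFP/Cherry fluorescence ratio. Each plasmid expressed Cherry along with GFP fused upstream of a tiled 17-residue yeast protein peptide. Plasmids recovered from each gate were PCR-amplified and Illumina-sequenced, with reads assigned to strains by barcodes. The protein stability index was obtained by summing each gate's read frequency weighted by its gate number.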

Row | Sequence | protein stability index (pdr5∆) | protein stability index (san1∆) | protein stability index (ubr1∆) | protein stability index (doa10∆)
1 | PEENATEGPSDKKLNLN [SNF12] | 3.59 ± 0.17 | 3.27 ± 0.099 | 3.29 ± 0.1 | –
2 | PELFESLGIAQPKGVIL [RPT6] | 2.82 ± 0.069 | 2.46 ± 0.092 | 2.54 ± 0.061 | 2.56 ± 0.052
3 | PEQGEEPMKQLNATKIS [YAR002W/NUP60] | 2.2 ± 0.09 | 2.5 ± 0.14 | 2.48 ± 0.11 | 3.15 ± 0.12
4 | PEQVYSLLLTNVIITGS [ARP7] | 1.39 ± 0.047 | 1.17 ± 0.11 | 1.23 ± 0.046 | 1.36 ± 0.06
5 | PEQYSDILLNERVWNIC [AAR2] | 3.23 ± 0.22 | 2.68 ± 0.18 | 2.99 ± 0.18 | 3.38 ± 0.12
6 | PERFMVFQLPTRLPAFE [RPC53] | 2.75 ± 0.054 | 2.54 ± 0.089 | 2.79 ± 0.058 | 2.31 ± 0.065
7 | PEYFESPLQSSKSKQSF [YMR129W/POM152] | 2.8 ± 0.08 | 2.91 ± 0.084 | 2.96 ± 0.076 | 2.78 ± 0.12
8 | PEYLAMYGLTMEWPKDM [ITC1] | 2.34 ± 0.11 | 2.23 ± 0.14 | 2.14 ± 0.072 | 2.45 ± 0.074
9 | PFFKYIDDANVTRKQED [RPC37] | 2.12 ± 0.064 | 2.34 ± 0.083 | 2.52 ± 0.061 | 2.55 ± 0.091
10 | PFILEYDLMAPNGHIST [YMR129W/POM152] | 3 ± 0.17 | – | 3.05 ± 0.097 | 2.94 ± 0.12
11 | PFKGEVVDGTVVSCSQH [RPB7] | 3.08 ± 0.1 | 2.92 ± 0.088 | 2.56 ± 0.12 | 3.04 ± 0.14
12 | PFSYLIDETMMDKPLNF [SRB5] | 3.09 ± 0.073 | 2.83 ± 0.067 | 2.97 ± 0.054 | 2.88 ± 0.11
13 | PFVPVLDRRFEIFFKKD [FAS1] | 2.98 ± 0.067 | 2.73 ± 0.055 | 2.86 ± 0.057 | 2.87 ± 0.059
14 | PFYGSYTETDPAKVAEE [SRP54] | 3.01 ± 0.14 | 3.08 ± 0.055 | 2.82 ± 0.099 | 3.19 ± 0.1
15 | PGEYITTIKAIFDGNYG [YMR129W/POM152] | 2.72 ± 0.071 | 2.77 ± 0.069 | 2.95 ± 0.07 | 2.62 ± 0.066
16 | PGSVNSAAKYKDMKLLR [NUT1] | 2.87 ± 0.12 | 2.73 ± 0.13 | 2.96 ± 0.085 | 2.89 ± 0.11
17 | PGVDVSAEEQLRKIDML [SRB7] | 2.61 ± 0.061 | 2.31 ± 0.072 | 2.67 ± 0.043 | 2.9 ± 0.084
18 | PGVLPVGIDTHTATDIY [SNF2] | 3.04 ± 0.064 | 2.77 ± 0.045 | 2.69 ± 0.04 | 2.96 ± 0.066
19 | PGVRVSGEDVIIGKTTP [RPB2] | 3.41 ± 0.16 | 3.61 ± 0.078 | 3.45 ± 0.073 | 3.36 ± 0.13
20 | PGYVDIVKTSSGNEMPP [RPS19A] | 2.86 ± 0.11 | 2.84 ± 0.11 | 3.11 ± 0.088 | 2.67 ± 0.19
21 | PHANPITHAHSLSNPNS [PGD1] | 2.99 ± 0.045 | 2.77 ± 0.038 | 2.94 ± 0.03 | 2.87 ± 0.046
22 | PHTTLVNECIAQSHQRF [CDC53] | 2.92 ± 0.052 | 2.85 ± 0.055 | 2.98 ± 0.039 | 2.79 ± 0.066
23 | PIGEAGDFGGWFCPCHG [RIP1] | 1.97 ± 0.05 | 2.87 ± 0.08 | 3.18 ± 0.075 | 2 ± 0.1
24 | PIIIYGTENTERPPLLP [YOR098C/NUP1] | 2.74 ± 0.1 | 2.97 ± 0.06 | 2.94 ± 0.048 | 3.13 ± 0.09
25 | PIPIAVLDSYTPSTNEP [FAS1] | 2.59 ± 0.063 | 2.69 ± 0.074 | 2.85 ± 0.041 | 2.78 ± 0.07
26 | PIYTGDGWVKLTYKSEL [YMR153W/NUP53] | 2.38 ± 0.09 | 2.45 ± 0.11 | 1.98 ± 0.049 | 2.24 ± 0.081
27 | PKAISNFLIKLSELSPG [YCS4] | 2.51 ± 0.085 | 2.08 ± 0.095 | 2.01 ± 0.056 | 2.37 ± 0.08

Row | Sequence | protein stability index (pdr5∆) | protein stability index (san1∆) | protein stability index (ubr1∆) | protein stability index (doa10∆)
28 | PKFISEALAFTSLVANE [YDL116W/NUP84] | 1.38 ± 0.078 | 1.31 ± 0.15 | 1.11 ± 0.17 | 1.23 ± 0.067
29 | PKKYKENNTDSARKELE [SMC1] | 2.8 ± 0.065 | 3.09 ± 0.046 | 3.31 ± 0.057 | 2.96 ± 0.059
30 | PKPDKPSGRTRGRSVMK [ESC2] | 3.05 ± 0.15 | 3.08 ± 0.098 | 3.7 ± 0.13 | 3.14 ± 0.17
31 | PKQSDEYLKRVSVPVSG [SIR3] | 2.55 ± 0.089 | 2.81 ± 0.096 | 2.72 ± 0.14 | 3.13 ± 0.086
32 | PKTGKVERSEAISKKDL [SEC65] | 3.46 ± 0.081 | 3.33 ± 0.14 | 3.23 ± 0.073 | 3.63 ± 0.16
33 | PKVPEDIYKSHLDNSKS [RPN1] | 2.98 ± 0.12 | 2.93 ± 0.1 | 3.24 ± 0.17 | 3.1 ± 0.12
34 | PLAKIYLEENKSDSQYR [MED1] | 3.18 ± 0.065 | 3.15 ± 0.059 | 3.16 ± 0.06 | 3.15 ± 0.086
35 | PLDTIETELPTLSLPDS [SMC1] | 2.92 ± 0.12 | 2.92 ± 0.083 | 3.09 ± 0.089 | 3 ± 0.12
36 | PLGKILLKGDNITLITS [SME1] | 3.12 ± 0.13 | 1.89 ± 0.16 | 3.07 ± 0.061 | 1.9 ± 0.093
37 | PLINRLKHYNGYDINYI [SWI1] | 2.57 ± 0.051 | 2.76 ± 0.065 | 2.69 ± 0.043 | 2.41 ± 0.068
38 | PLKYTKLIAAAEDGSRS [SNF6] | 1.49 ± 0.11 | 1.19 ± 0.21 | 1.57 ± 0.18 | 1.3 ± 0.23
39 | PLLTKRKDLRDKLICSI [DIS3] | 2.62 ± 0.071 | 2.31 ± 0.1 | 3.06 ± 0.13 | 2.55 ± 0.088
40 | PLLVPGMTPCTVSPDFV [FAS1] | 2.38 ± 0.055 | 1.98 ± 0.11 | 1.64 ± 0.065 | 1.64 ± 0.096
41 | PMDAYLKLNHIIANINS [SNU114] | 2.59 ± 0.085 | 1.97 ± 0.22 | 2.4 ± 0.097 | 1.26 ± 0.078
42 | PMTVKLVQLPKSAMDTF [POP3] | 2.52 ± 0.062 | 2.81 ± 0.053 | 2.88 ± 0.053 | 2.15 ± 0.058
43 | PNEFMQFKSKEVEKAHP [PRP8] | 3.37 ± 0.11 | 3.23 ± 0.052 | 3.25 ± 0.091 | 3.16 ± 0.08
44 | PNEHPGAKYVIRDSGDR [RPO21] | 3.1 ± 0.087 | 2.7 ± 0.15 | 3.03 ± 0.069 | 3.01 ± 0.084
45 | PNIMLIFGSGFGSADDT [FAS1] | 2.92 ± 0.073 | 3.12 ± 0.067 | 2.24 ± 0.065 | 3.07 ± 0.07
46 | PNLGPQLWLNSSGDFDD [GRR1] | 3.16 ± 0.22 | – | – | 2.97 ± 0.16
47 | PNRLVKELQYDNEQNLE [PRE2] | 2.97 ± 0.099 | 2.8 ± 0.094 | 3.08 ± 0.073 | –
48 | PNVCNMKQYRDFLGVAS [PRP28] | 2.26 ± 0.091 | 2.37 ± 0.077 | 1.99 ± 0.072 | 1.99 ± 0.14
49 | PPDSDSSISVMGENEKP [RPT3] | 1.22 ± 0.12 | 1.21 ± 0.15 | 1.77 ± 0.2 | 1.47 ± 0.16
50 | PPKPRKVLQLLRLTRIN [RPL7A] | 1.57 ± 0.077 | 1.7 ± 0.12 | 1.09 ± 0.061 | 1.95 ± 0.095
51 | PPSSFGRSHTRNSTRSS [REC8] | 2.65 ± 0.17 | 3.14 ± 0.087 | 2.96 ± 0.17 | 3.04 ± 0.14
52 | PQEPKHIQEEEEQDVDM [RPC19] | 3.36 ± 0.09 | 3.12 ± 0.05 | 3.28 ± 0.056 | 3.41 ± 0.09
53 | PQFDSTQPKSSSSMDMQ [SSN3] | 3 ± 0.068 | 2.95 ± 0.05 | 3.02 ± 0.044 | 2.94 ± 0.069
